experiment: yeast display, Sf9 membrane polyspecificity reagent, FACS + sequencing; frameworks hold sequencing errors
In short: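 A nanobody's polyreactivity label depends on the gate it was sorted from. Yeast display cells were stained with 10% biotinylated, detergent-solubilized Sf9 membrane reagent for 1 hour at 4 °C, enriched on streptavidin microbeads and sorted by FACS. The low and high (top ~1%) gates were set on anti-HA fluorescence for expression and streptavidin fluorescence for reagent binding.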

Sequence | polyreactivity (PSR sort gate)
QVQLVESGGGLVQAGGSLRLSCAASGRLFSRYAMGWNRQAPGQQRELVAAITRGGGSTYYADSVKGRFTISRDNAKNTVYLQMNSLKPEDTAVYYCNKASVQYYGDVYWGQGTQVTVSS | high polyreactivity
QVQLVESGGGLVQAGGSLRLSCAASGSIFRFNAMGWNRPAPGKERELVAAITSSGGSTYYADSVKGRFTISRDNAKNTVYLQMNSLKPEDTAVYYCAKRWLYPISYDYWGQGTQVTVSS | high polyreactivity
QVQLVESGGGLVQAGGSLRLSCAASGFTFGWYAMGRYRQAPGKERELVAAISRGGSTYYADSVKGRFTISRDNAKNTVYLQMNSLKPEDTAVYYCNAAGLPTQLYYWGQGTQVTVSS | high polyreactivity
QVQLVESGGGLVQAGGSLRLSCAASGSIFDWYAIGWYRQAPGKEGELVAAISSGDSTYYADSVKGRFTISRDNAKNTVVLQMNSLKAEETSVSDCAAVTKLSGIRYNYWGQGSQVTVSS | low polyreactivity
QVQLVESGGGLVQAGGSLRLSCASSGSIFWQNTMGWYRQAPGKERELVATITSAGSTYYADSVKGRFTISRDNAKNTVYLQMNSLKPEDTAVYYCAKGHQPGHVFHPEYGYDYWGQGTQVTVSS | low polyreactivity
QVQLVESGGGLVQAGGSLRLSCAASGYDMGWYRQAPGKERELVAAISRGGSTSYADSVKGRFTISRENAKNTVYLQMNSLKPEDTAVYYCAARYGSYRVGYDYWGQGTQVTVSS | low polyreactivity
QFQLVESGGGLVQAGGSHRLSCAASGFIFYYYAMGSYRQAPGKERELVAVLTESGSSTYYADSVKGRFTFSRDNAKNTVYLQMNSLKPVDTAVYYCNADFWPYTGKYDYWGQGTQVTVSS | low polyreactivity
QVQLVESGGGLVQAGGSLRLSCAASGSTFQGKAMGWYRQAPGKERELVATINNDGSTYYADSVKGRFTISRDNAKNTVYLQMNSLKPEDTAVYYCAADVHRVVLEYDYWGQGTQVTVSS | low polyreactivity
QVQLVESGGVLVQAGGSLRLSCAASGRTLRWYAKGWYRPAPGKERELVAAINWSGTSTYYADSVKGRFTISRDNAKNTVYLQMNSLKPEDTAVYYCAKRVTWNYDWGQGTQVTVSS | high polyreactivity
QVQLVESGGGLVQAGGSLRLSCAASGGTFSLNAMGWSRQAPGKERELVAAITYSTGRTHYADSVKGRFTISRDNAKNTVYLQMNSLKPEDTAVYYCAARVYGTKMDYWGQGTQVTVSS | high polyreactivity
QVQLVESGGGLVQAGGSLRLSCAASGSIFWPNAMGWYRQAPGKERELVAAISWGTGSTYYADSVKGRFTISRDNAKNTVYLQMNSLKPEDTAVYYCAADGAYLDPYYDYWGQGTQVTVLS | low polyreactivity
QVQLVESGGGLVQAGGSLRLSCAASGSIFAPYAMGWYRQAPGKEREVVAAITSGVGSTYYADSVKGRFTISRDNAKNTVYLQMNSLKPEDTAVYYCAADSSYLTYWEYDYWGQGSQVTVSS | low polyreactivity
QVQLVESGGGLVQAGRSLRLSCAASGTFIGYAMVWYRQAPGKERELVAAIDESGGSTYYADSVKGRFTISRDNAKNTVYLQMNSLKPEDTAVYYCAAYRYYSDYDYWGQGTQVTVSS | low polyreactivity
QVQLVESGGGLVQAGGSLRLSCAASGITFGTYTMGWYRQAPGKERELVAAISRSGTGTYYADSVKGRFTISRDNAKNTVYLQMNSLKPEDTAVYYCAAAGYIYYGYEYLYGFEYWGQGTQVTVSS | high polyreactivity
QVQLVESGGCLVQAGGSLRLTCAASGFTLGFNAMGWYRQAPGKERELVAAITIGGTTYYADSVKGRFTLSRDNAKNTVYLQMNSLKPEDTAVYYCAASPVWWYDYWGQGTQVTVSS | low polyreactivity
QVQLVESGGGLVQAGGSLRLSCAASGSIFYGYVMGWYRQARGKERELVAAITRSGSTYYADSVKGRFTISRDNAKNTVYLQMNSLKPEDTAVYYCAAAAKRKYYWGQGNQVTVSS | high polyreactivity
QVQLVESGGGLVQAGGSLRLSCAASGIIFRSYAMGWYRQAPGKERELVAGITRVGSTYYADSVKGRFTISRDNAKNTVYLQMHSLKPEDTAVYYCNAYNYWSDDYWGQGTQVTVSS | high polyreactivity
QVQLVESGGGLVQAGGSLRLSCAASGRTFASNAMGWYRQAPGKERELVAAISSAGGTNYADSVKGRFTISRDNAKNTVYLQMNSLKPEDTAVYYCAAASPYYSYHRYIYYYWGQGTQVTVSS | high polyreactivity
QVQLVESCGGLVQAGGSLRLSCAASGSISFYAMGWYRQAPGQERELVAAITTSGGRTYYADSVKGRFTISRDNAKNTVYLQMNSLKPEDTAVYYCAQQGWYYSNRDGYRWYDYWGQGTQVTVSS | high polyreactivity
QVQLVESGGGLVQAGGSLRLSCAASGRILPLYAMGWSRQAPGKERELVATMILDGDSTYYADSVKGRFTISRDNAKNTVYLQMNSQKPEDTAVYYCNDDYTPWGRGYPYDYWGQGSQVTVSS | low polyreactivity
QVQLVESGGGLVQAGGSLRLSCAASGRIFISYTMGLYRHAPGKERELVAGIDSSGTSTYYADSVKGRFTISRDNAKNTVYLQMNRLKPEDTAVYYCIVVANWKDTSTELDYWGQGTQVTVSS | low polyreactivity
QVQLVESGGGLVQAGGSLRLSCAASGSIFYPNVMGWDRQAPGKERELVAAIRTSGGSTYYADSVKGRFTISRDNAKNTVYLQMNSLKPEDTAVYYCAADYIYVKYEYWGQGTQVTVSS | high polyreactivity

Sequence | polyreactivity (PSR sort gate)
QVQLVDSGGGLVQAGGSLRLSCAASGRTFGAYAMGWYRQAPGKERELVATITVSGGSTYYADSVKGRFTISRDNAKNTVYLQMNSLKPEDSAVYYCAAAYDWWQFYSWTIAYDYWGQGTQVTVSS | low polyreactivity
QVQLVESGGGLVQAGGSLRLSCAASGSIFKKYAMGWYRQAPGKERELVAAISSTGGSTKYADSVKGRFTISRDNAKNTVYLQMNSLKPEDTAVYYCAVRYKWPYDYWGQGTQVTVSS | high polyreactivity
QVQLVESGVGLVQAGGTLRISCAASGRISRGYAMGWYRQAPGKERELVAAISRRGDSTYYADSVKGRFTISRDNAKYTVYLQMNSLKPEDTAVYYCAARNGGRYAAGLDYWGQGTHVTVSS | high polyreactivity
QVQLVESGGGLVQAGGSLRLSCAASGLIFGGNAMGWYRQAPGKERELVAAISRTGGRTYYADSVKGRFTISRDNAKNTVYLQMNSLKPDDTAVYFCAAAAQRPEGYYWGQGTQVTVSS | high polyreactivity
QVQLVESGGGLVQAGGSLRLSCAASGSIFWSNAMGWYRPATGKERELVAAISSGGSTYADSVKGRFTISRDNAKNTVYLQMNSLKPVDTAVYYCNADVLYGDYYRGGYWGQGTQVTVSS | low polyreactivity
QVQLEESGGGLVQAGGSLRLSCAASGFTFTDYALGWYRQAPGTERELVAVITYDSTYYADPVKGRFTISRDNAKNTVYLQMNSLNPEDTAVYFCAADSYDWGDFDYWGQGTQVTVSS | low polyreactivity
QVQLVESGGGLVEAGGSLRLTCAAYGSIFSAYAMGWYRAAPGKERELVAAITRGTSTNYADSVKGRFTISRDNAKNTVYLQMNSLKPEDTAVYYCAVGYNSKLAVGMYYWGLGTQVTVSS | low polyreactivity
QVQLVESGGGLVQAGGSVRISCAASGRTFWYYAMGVYIQAPRKERELLAAITGRGGSTHYADSVKGRLTISRDNAKNTVYLPMISLKPEDTAVYYCAKDHYYRFPWGTGGYRGQGTQVTVSS | low polyreactivity
QVQLVESGGGLVQAGGSLRLSCAASGSTLGSYAMGWYRQAPGKERELVAAINTSGGNTYYADSVKGRFTISRDNAKNTVYLQMNSLKPEDTAVYYCNARYYGGGATFGYWGQGTQVTVSS | low polyreactivity
QVQLVESGGGLVQAGGSLRLSCAASGSIFVSEYVMGWYRQAPGKERELVARIRWSSGSTYYADSVKGRFTISRDNAKNTVYLQMNSLKPEDTAVYYCAKATSSFYHYRYDYWGQGTQVTVSS | low polyreactivity
QVQLVESGGGLVQAGGSRRLSCAASGSTFRGNAMGWYRQAPGKERELVAAITWSGDDTYYADSVKGRFTISRDNAKNTVYLQMNSLKPEDTAVYYCAADLAAFTLAVAYTYDYWGQGTQVTVSS | low polyreactivity
QVQLVESGGGLVQAGGSLRLSCAASGSILYINAMGWYRQAPGKERELVAAITYSGGSTYYADSVKGRFTISRDNAKNTVYLQMNSLKPEDTAVYYCAADAVVAGRYDGHDYWGQGTQVTVSS | low polyreactivity
QVQLVESGGGLVQAGGSLRLSCAASGITFWKYTMGWYIPAPGKERELVASIRIGGSTYYADSVKGRFTISRDNAKNTVYLQMNSLKPEDTAVYYCAAKGIYGLQGSPRSGYYYWGQGTQVTVSS | high polyreactivity
QVQLVESGVGLVQAGGSLRLSCAASGFTFDDNAMGWYRQAPGKERDFVASITNSTGSTYADSVKGRFTISRDNAKNTFYLQMNSLKPEDTAVDYCAVDNISNWAVENDYWGQGTQVTVSS | low polyreactivity
QVQLVESGGGLVQAGGSLRLSCAASGNTFKTNAMGWYRQAPGKERELVAAISSSGSTYYADSVKGRFTISRDNAKNTVYLQMNSLKPEDTAVYYCAVTYRRFYYWGQGTQVTVSS | high polyreactivity
QVQLVESGGGLVQAGGSLRLSCAASGRIFRFYAMGWYRQAPGKERELVAAITRNVGSTFYADSVKGRFTISRDNAKNTVYLQMNSLKPEDTAVYYCAAESDYYYRYTFDYWGQGTLVTVSS | low polyreactivity
QVQLVDSGGGLVQAGGSLGLSCAASGRSFTFNAMGWYRQAPGKERELVAAISSRGDGTYYADSVKGRFTISRDNAKNNVYLQMNSLKPEDTAVYYCARYPDDYYDWGYDYWGQGTQVTVSS | low polyreactivity
QVQLVESGGGLVQAGGSLRLSCAASGRTFIRNAMGWYRQAPGKERELVAAISRGGGTYYADSVKGRFTISRDNAKNTVYLQMNSLKPEDTAVYYCAAGFRSPYYWGQGTQVTVSS | high polyreactivity
QVQLVESGGGLVQAGGSLRLSCAASGNTFRRNVMGWYRQAPGKERELVAAINRGGSTTDADSVKGRFTISRDNAKNTVYLQMNSLKPEDTAVYYCNARTLFKWRHGHYYAYDYWGQGTQVTVSS | high polyreactivity
QVQLVESGGGLLQAGGSLRLSCAASGNIFTYYAMGWYRQAPGKERDLVAAIRWRSGSTYYADSVKGRFTISRDNAKNTVYLQMNSLKPEDTAVYYCADDGTPYEYDYWGQGTQVTVSS | low polyreactivity
QVQLVESGGGLVQAGGSLRLSCAASGFTISKYAMGWYRQAPGKERELVAVISSGGRTNYADSVKGRFTISRDNAKNTVYLQMNSLKPEDTAVDYCAAIGWRTRSRFEYWGQGTQVTVSS | high polyreactivity

— the nanobody polyreactivity screen of Harvey et al. (2022)
